{
  "source": "paper PMC6368335",
  "about": "“Inhibition of the Staphylococcus aureus c-di-AMP cyclase DacA by direct interaction with the phosphoglucosamine mutase GlmM” (PLoS Pathogens, 2019)",
  "molecules": {"B1": {"name": "S. aureus phosphoglucosamine mutase GlmM, tag-less (enzyme)", "chain": "MGKYFGTDGVRGVANQELTPELAFKLGRYGGYVLAHNKGEKHPRVLVGRDTRVSGEMLESALIAGLISIGAEVMRLGIISTPGVAYLTRDMGAELGVMISASHNPVADNGIKFFGSDGFKLSDEQENEIEALLDQENPELPRPVGNDIVHYSDYFEGAQKYLSYLKSTVDVNFEGLKIALDGANGSTSSLAPFLFGDLEADTETIGCSPDGYNINEKCGSTHPEKLAEKVVETESDFGLAFDGDGDRIIAVDENGQIVDGDQIMFIIGQEMHKNQELNNDMIVSTVMSNLGFYKALEQEGIKSNKTKVGDRYVVEEMRRGNYNLGGEQSGHIVMMDYNTTGDGLLTGIQLASVIKMTGKSLSELAGQMKKYPQSLINVRVTDKYRVEENVDVKEVMTKVEVEMNGEGRILVRPSGTEPLVRVMVEAATDEDAERFAQQIADVVQDKMGLDK", "notes": "phosphoglucosamine mutase GlmM of S. aureus (LAC* genomic DNA); C-terminal 6-His tag removed at the thrombin site; In the tag-less DacACD/GlmM complex (SASBDB SASDE78) this chain stands with m1; also called tag-less GlmM; source: E. coli BL21 (DE3), purified (Ni-NTA, thrombin cleavage of the His-tag, size exclusion chromatography); not shown: His6, C-terminal, cleaved"}},
  "key": {"[1]": {"target": "S. aureus phosphoglucosamine mutase GlmM, C-terminally His-tagged (GlmM-His) (S. aureus) (UniProt P0C0V7)"}, "[2]": {"target": "S. aureus DacA catalytic domain (DacACD), tag-less (S. aureus)", "assay": "SEC; tag-less proteins after Ni-NTA and thrombin cleavage on a Superdex 200 10/300 column, UV at 280 nm"}, "[3]": {"target": "S. aureus DacA catalytic domain (DacACD), tag-less (S. aureus)", "assay": "native MS; purified tag-less DacACD/GlmM complex, 13.5 uM in 200 mM ammonium acetate pH 7.5, nanoelectrospray, Waters Synapt QToF; species deconvoluted with Amphitrite"}, "[4]": {"target": "S. aureus phosphoglucosamine mutase GlmM, tag-less (S. aureus) (UniProt P0C0V7)", "assay": "native MS; purified tag-less DacACD/GlmM complex, 13.5 uM in 200 mM ammonium acetate pH 7.5, nanoelectrospray, Waters Synapt QToF; species deconvoluted with Amphitrite", "details": "scale: DacACD per GlmM"}, "[5]": {"target": "S. aureus phosphoglucosamine mutase GlmM, tag-less (S. aureus) (UniProt P0C0V7)", "assay": "SEC-MALS + native MS; purified tag-less DacACD/GlmM complex; SEC-MALS: 100 ul at 18 mg/ml, Superdex 200 Increase 10/300, 30 mM Tris pH 7.5, 150 mM NaCl; native MS: 13.5 uM in 200 mM ammonium acetate"}, "[6]": {"target": "S. aureus DacA catalytic domain (DacACD), tag-less (S. aureus)", "assay": "SEC-SAXS; tag-less DacACD, GlmM and the DacACD/GlmM complex on a Superdex 200 5/150 column coupled to the SAXS beam, 30 mM Tris pH 7.5, 150 mM NaCl; envelopes reconstructed, crystal structures fitted"}, "[7]": {"target": "S. aureus phosphoglucosamine mutase GlmM, tag-less (S. aureus) (UniProt P0C0V7)", "assay": "SEC-SAXS; tag-less DacACD, GlmM and the DacACD/GlmM complex on a Superdex 200 5/150 column coupled to the SAXS beam, 30 mM Tris pH 7.5, 150 mM NaCl; envelopes reconstructed, crystal structures fitted"}, "[8]": {"target": "S. aureus DacACD-K variant (N166K, T172K), tag-less (S. aureus)", "assay": "SEC; tag-less proteins after Ni-NTA and thrombin cleavage on a Superdex 200 10/300 column, UV at 280 nm"}, "[9]": {"target": "S. aureus DacACD-C variant (N166C, T172C), tag-less (S. aureus)", "assay": "SEC; tag-less proteins after Ni-NTA and thrombin cleavage on a Superdex 200 10/300 column, UV at 280 nm"}, "[10]": {"target": "the molecule itself", "assay": "native MS; purified tag-less DacACD/GlmM complex, 13.5 uM in 200 mM ammonium acetate pH 7.5, nanoelectrospray, Waters Synapt QToF; species deconvoluted with Amphitrite"}},
  "data": [
    {"molecule": "S. aureus DacA catalytic domain (DacACD), tag-less (domain or fragment)", "values": [
      {"measurement": "GlmM phosphoglucosamine mutase activity (coupled radioactive assay with GlmU), DacA in 5- to 400-fold excess over GlmM; no inhibition at 5- to 50-fold excess", "setting": "[1]", "value": 15, "unit": "%"},
      {"measurement": "stoichiometry N", "setting": "[2]", "value": 2},
      {"measurement": "stoichiometry N", "setting": "[3]", "value": 2},
      {"measurement": "stoichiometry N", "setting": "[4]", "value": 1},
      {"measurement": "stoichiometry N (DacACD dimer per GlmM dimer (2:2))", "setting": "[5]", "value": 1},
      {"measurement": "stoichiometry N", "setting": "[6]", "value": 2},
      {"measurement": "stoichiometry N (DacACD dimer per GlmM dimer)", "setting": "[7]", "value": 1}
    ]},
    {"molecule": "S. aureus DacACD-K variant (N166K, T172K), tag-less (domain or fragment)", "values": [
      {"measurement": "stoichiometry N", "setting": "[8]", "value": 2}
    ]},
    {"molecule": "S. aureus DacACD-C variant (N166C, T172C), tag-less (domain or fragment)", "values": [
      {"measurement": "stoichiometry N", "setting": "[9]", "value": 2}
    ]},
    {"molecule": "B1", "values": [
      {"measurement": "stoichiometry N", "setting": "[10]", "value": 2}
    ]}
  ]
}
